The results in this text go back to patent US20240409635A1.

This assay concerns the target keyhole limpet haemocyanin. In words: ELISA, KLH coated, 100 nM antibody.

Consider Adalimumab (antibody), for which the absorbance ratio to PBS blank is 1.03.

On to Ofatumumab (antibody), for which the absorbance ratio to PBS blank was determined as 1.15.
